From publication PMC3116947
Where “and” joins values, the source holds several entries; their conditions need not be identical. Equal values may be shown once.

What was measured:
[1] = target: Gab1 G1 peptide (Homo sapiens); assay: ITC
[2] = target: Gab1 G2 peptide (Homo sapiens); assay: ITC

Binder	Kd [1]	Kd [2]
Grb2 cSH3, P62993 (protein) QQPTYVQALFDFDPQEDGELGFRRGDFIHVMANSDPNWWKGACHGQTGMFPRNYVTPVNR	171 µM	
Grb2 cSH3, P62993 (protein) QQPTYVQALFDFDPQADGELGFRRGDFIHVMDNSDPNWWKGACHGQTGMFPRNYVTPVNR	444 µM	158 µM
Grb2 cSH3, P62993 (protein) QQPTYVQALFDFDPQEDGELGFRRGDFIHVMDNSDPNWWKGACHGQTGMFPRNYVTPVNR	200 µM and 152 µM and 50 µM	42 µM
